From article PMC6233222, “Structure and oligomerization of the periplasmic domain of GspL from the type II secretion system of Pseudomonas aeruginosa” (Scientific Reports, 2018)

Assays:
[1] = biological target: the molecule itself; test: SEC-SAXS; early elution peak of GspL^peri, 9.0 mg/ml injected; Bio SEC-3 column, SWING beamline
[2] = biological target: the molecule itself; test: SEC-SAXS; late elution peak of GspL^peri, 13.7 mg/ml injected; Bio SEC-3 column, SWING beamline
[3] = biological target: the molecule itself; test: SEC-MALLS; early elution peak (EEP) of GspL^peri, one hour after purification and after concentration; Superdex 200 increase in 50 mM TRIS pH 7.5, 100 mM NaCl; tetramer converts irreversibly into dimers
[4] = biological target: the molecule itself; test: SEC-MALLS; GspL^fld made by incubation of GspL^peri in crystallization conditions over 48 hours and purified by SEC (absorbance at 220 nm)
[5] = biological target: the molecule itself; test: crystal structure; crystal form 1, space group I4(1)22, 2.5 Å; dimer generated by a crystallographic 2-fold axis; sample from the LEP, sitting drop vapor diffusion at 20 °C

B1: GspL^peri, the complete periplasmic segment of general secretory pathway protein L (GspL) from Pseudomonas aeruginosa (domain or fragment)
chain: GDRYAAQSAELYRQLFPEDRKLINLRAQFDQHLADSASSGGEGQLLGLLGQAATVIGGEPTVSVEQLDFSAARGDVALQVRAPGFDVLERLRSRLSESGLAVQLGSASRDGSTVSARLVIGG
notes: membrane proximal domain (MPD), short linker and ferredoxin-like domain (FLD); calculated mass of the construct 13.95 kDa; No step that removes the tag is described; also called XcpY (periplasmic segment); EEP and LEP material; source: E. coli BL21 (DE3), purified (Strep-tactin, SEC on Superdex 75); not shown: Strep-tag, N-terminal, kept
stoichiometry N [1]: 4 | stoichiometry N [2]: 2 | tetramer to dimer ratio of peak areas, higher concentration [3]: 0.57 | tetramer to dimer ratio of peak areas, lower concentration [3]: 0.7

B2: GspL^fld purified from GspL^peri that was incubated in crystallization conditions over 48 hours (domain or fragment)
chain: DSASSGGEGQLLGLLGQAATVIGGEPTVSVEQLDFSAARGDVALQVRAPGFDVLERLRSRLSESGLAVQLGSASRDGSTVSARLVIGG
notes: GspL (XcpY), P. aeruginosa PAO1; mixture of two proteolytic variants of the construct 261-382 that start at residues 286 and 295 (Edman degradation), the shorter one (from 295) predominant; the C-terminal limit 382 is that of the parent construct; The sample is a mixture of 295-382 (predominant) and 286-382; also called GspL^fld (in solution); 10 kDa band; source: E. coli BL21 (DE3), purified …
stoichiometry N [4]: 2

B3: GspL^fld, the crystallized proteolytic product of GspL^peri (ferredoxin-like domain of GspL) (domain or fragment)
chain: RAQFDQHLADSASSGGEGQLLGLLGQAATVIGGEPTVSVEQLDFSAARGDVALQVRAPGFDVLERLRSRLSESGLAVQLGSASRDGSTVSARLVIGG
notes: GspL (XcpY), P. aeruginosa PAO1; proteolytic product of the construct 261-382 with the new N-terminus at residue 286 (Edman degradation); the C-terminal limit 382 is that of the parent construct; The protease is not identified; the N-terminal Strep-tag is lost with the N-terminal part of the MPD; also called Gsp^fld; crystal form 1; source: E. coli BL21 (DE3), purified GspL^peri (late elution …)
stoichiometry N [5]: 2
